T1: TROP2 (human, UniProt P09758 27-323)
T1 sequence (looked up): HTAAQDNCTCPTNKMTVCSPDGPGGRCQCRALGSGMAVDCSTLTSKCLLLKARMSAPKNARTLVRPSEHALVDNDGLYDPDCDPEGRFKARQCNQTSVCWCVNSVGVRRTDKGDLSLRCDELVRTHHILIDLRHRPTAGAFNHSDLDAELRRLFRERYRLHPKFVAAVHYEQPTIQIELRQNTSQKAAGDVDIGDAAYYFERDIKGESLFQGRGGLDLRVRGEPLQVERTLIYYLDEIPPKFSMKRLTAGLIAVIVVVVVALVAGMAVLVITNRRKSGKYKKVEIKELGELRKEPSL

B1: ADC-5 (antibody, human IgG1, kappa, V domains shown)
VH: QVQLQQSGSELKKPGASVKVSCKASGYTFTNYGMNWVKQAPGQGLKWMGWINTYTGEPTYTDDFKGRFAFSLDTSVSTAYLQISSLKADDTAVYFCARGGFGSSYWYFDVWGQGSLVTVSS
VL: DIQLTQSPSSLSASVGDRVSITCKASQDVSIAVAWYQQKPGKAPKLLIYSASYRYTGVPDRFSGSGSGTDFTLTISSLQPEDFAVYYCQQHYITPLTFGAGTKVEIKR
modifications: Linker-Payload 1 joined by Sortase A ligation at the C-terminal GALPETGG tag of the light chain (resulting sequence LPXTGn with n = 3, then linker-payload); DAR value 3.5
B2: ADC-6 (antibody, human IgG1, kappa, V domains shown)
VH: B1 VH
VL: B1 VL
modifications: Linker-Payload 2 joined by Sortase A ligation at the C-terminal GALPETGG tag of the light chain; DAR value 3.6
B3: Ab2 (antibody, human IgG1, kappa, V domains shown)
VH: B1 VH
VL: B1 VL
B4: ADC-7 (antibody, human IgG1, kappa, V domains shown)
VH: B1 VH
VL: B1 VL
modifications: Linker-Payload 3 joined by Sortase A ligation at the C-terminal GALPETGG tag of the light chain; DAR value 3.6

Tests used:
[1] = first-phase clinical trial; cited from earlier work
TROP2 [2] = target: T1, TROP2; assay: cell-based or functional assay
TROP2 [3] = target: T1, TROP2; assay: cell-based or functional assay; remark: listed apart in the source

Molecule | patients with adverse events above Grade 3 [1] [%] | patients with interstitial lung disease [1] [%] | IC50, inhibition of proliferation of TROP2-positive BxPC-3 cells (CellTiterGlo, 120 h) (TROP2 [2]) [nM] | Endocytosis by TROP2-positive tumor cells: Half Life (TROP2 [3]) [min] | Endocytosis by TROP2-positive tumor cells: Maximum endocytosis (MFI) (TROP2 [3]) | Endocytosis by TROP2-positive tumor cells: Maximum endocytosis rate (%) (TROP2 [3])
DS1062 | 48 | 8 |  |  |  | 
B1 |  |  | 0.249 | 45.6 | 18600 | 46
B2 |  |  | 0.254 | 42.8 | 18200 | 45
B3 |  |  |  | 48.2 | 18500 | 46
B4 |  |  | 0.602 |  |  | 
